In patent US10745460B2, “Peptides and combination of peptides for use in immunotherapy against various tumors” (Immatics Biotechnologies GmbH, priority 2015, dated 2020):

Each substance was assayed against HLA-A*02:01 (Homo sapiens, UniProt P04439, D140Y/D185E/D98H/E176V/E277Q/G131W/G231S/I119V/I121R/I166T/I218V/L300P/L318F/N151K/N90K/P208A/P217A/Q86G/Q94H/R138H/R169H/T345S) (assay: MHC binding assay: UV-ligand exchange with β2m ELISA (peptide exchange yield)). Conditions: binding to HLA-A*02:01 evaluated by peptide exchange yield (UV-ligand exchange, β2m ELISA).
Source text: Candidate peptides for T cell based therapies according to the present invention were further tested for their MHC binding capacity (affinity). The individual peptide-MHC complexes were produced by UV-ligand exchange, where a UV-sensitive peptide is cleaved upon UV-irradiation, and exchanged with the peptide of interest as analyzed. Only peptide candidates that can effectively bind and stabilize the peptide-receptive MHC molecules prevent dissociation of the MHC complexes. To determine the yield of the exchange reaction, an ELISA was performed based on the detection of the light chain (β2m) of stabilized MHC complexes. The assay was performed as generally described in Rodenko et al. (Rodenko et al., 2006).
96 well MAXISorp plates (NUNC) were coated over night with 2 ug/ml streptavidin in PBS at room temperature, washed 4× and blocked for 1 h at 37° C. in 2% BSA containing blocking buffer. Refolded HLA-A*02:01/MLA-001 monomers served as standards, covering the range of 15-500 ng/ml. Peptide-MHC monomers of the UV-exchange reaction were diluted 100 fold in blocking buffer. Samples were incubated for 1 h at 37° C., washed four times, incubated with 2 ug/ml HRP conjugated anti-β2m for 1 h at 37° C., washed again and detected with TMB solution that is stopped with […]. Absorption was measured at 450 nm. Candidate peptides that show a high exchange yield (preferably higher than 50%, most preferred higher than 75%) are generally preferred for a generation and production of antibodies or fragments thereof, and/or T cell receptors or fragments thereof, as they show sufficient avidity to the MHC molecules and prevent dissociation of the MHC complexes.

Peptide exchange | Substance
++ (≥20% = ++) | 149 (NMADGQLHQV; listed as Homo sapiens) [compound 149]
+++ (≥50 = +++) | 150 (VLLDMVHSL; listed as Homo sapiens) [compound 150]
++ (≥20% = ++) | 151 (DISKRIQSL; listed as Homo sapiens) [compound 151]
+++ (≥50 = +++) | 153 (KLVELEHTL; listed as Homo sapiens) [compound 153]
++ (≥20% = ++) | 154 (AIIKEIQTV; listed as Homo sapiens) [compound 154]
++ (≥20% = ++) | 155 (TLDSYLKAV; listed as Homo sapiens) [compound 155]
++ (≥20% = ++) | 157 (ILQDGQFLV; listed as Homo sapiens) [compound 157]
+++ (≥50 = +++) | 158 (YLDPLWHQL; listed as Homo sapiens) [compound 158]
+++ (≥50 = +++) | 159 (QLGPVPVTI; listed as Homo sapiens) [compound 159]
+++ (≥50 = +++) | 160 (TLQEWLTEV; listed as Homo sapiens) [compound 160]
++++ (≥75% = ++++) | 161 (NLLDENVCL; listed as Homo sapiens) [compound 161]
+++ (≥50 = +++) | 162 (GLLGNLLTSL; listed as Homo sapiens) [compound 162]
++ (≥20% = ++) | 163 (GLEERLYTA; listed as Homo sapiens) [compound 163]
+++ (≥50 = +++) | 164 (MLIIRVPSV; listed as Homo sapiens) [compound 164]
+++ (≥50 = +++) | 165 (SLLDYEVSI; listed as Homo sapiens) [compound 165]
+++ (≥50 = +++) | 166 (LLGDSSFFL; listed as Homo sapiens) [compound 166]
+++ (≥50 = +++) | 167 (LVVDEGSLVSV; listed as Homo sapiens) [compound 167]

Peptide exchange | Substance
+++ (≥50 = +++) | 168 (VIFEGEPMYL; listed as Homo sapiens) [compound 168]
+++ (≥50 = +++) | 169 (ALADLSVAV; listed as Homo sapiens) [compound 169]
++ (≥20% = ++) | 170 (FIAAVVEKV; listed as Homo sapiens) [compound 170]
++ (≥20% = ++) | 171 (LLLLDVPTA; listed as Homo sapiens) [compound 171]
+++ (≥50 = +++) | 173 (RLIDIYKNV; listed as Homo sapiens) [compound 173]
++ (≥20% = ++) | 174 (ALYSGDLHAA; listed as Homo sapiens) [compound 174]
+++ (≥50 = +++) | 175 (SLLDLVQSL; listed as Homo sapiens) [compound 175]
++ (≥20% = ++) | 176 (VQSGLRILL; listed as Homo sapiens) [compound 176]
+++ (≥50 = +++) | 177 (ALINVLNAL; listed as Homo sapiens) [compound 177]
++++ (≥75% = ++++) | 178 (SLVSWQLLL; listed as Homo sapiens) [compound 178]
+++ (≥50 = +++) | 179 (TLGEIIKGV; listed as Homo sapiens) [compound 179]
+++ (≥50 = +++) | 180 (RLYEEEIRI; listed as Homo sapiens) [compound 180]
+++ (≥50 = +++) | 181 (LLWAPTAQA; listed as Homo sapiens) [compound 181]
+++ (≥50 = +++) | 182 (GLQDGFQITV; listed as Homo sapiens) [compound 182]
+++ (≥50 = +++) | 183 (ALSYILPYL; listed as Homo sapiens) [compound 183]
++ (≥20% = ++) | 184 (ALDSTIAHL; listed as Homo sapiens) [compound 184]
